Experiment [1] deals with full-length human αIIb cytoplasmic tail peptide (human). Kind of experiment: ELISA. A general note: An ELISA detects its analyte on a solid surface through an enzyme-linked reagent.
The target of experiment [2] is T1, calcium and integrin binding protein 1 (CIB1), recombinant (human, UniProt Q99828 1-191).
T1 sequence (looked up): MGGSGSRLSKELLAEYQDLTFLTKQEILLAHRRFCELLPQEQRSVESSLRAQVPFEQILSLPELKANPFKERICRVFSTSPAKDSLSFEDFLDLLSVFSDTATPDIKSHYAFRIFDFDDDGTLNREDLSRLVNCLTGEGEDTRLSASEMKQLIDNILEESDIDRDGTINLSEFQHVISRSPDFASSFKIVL
Nature of the experiment: ELISA.

For orientation: IC50 means the point on the concentration scale where inhibition reaches its midpoint. A higher IC50 goes with lower potency. For the molecule “talin head domain (THD), recombinant (domain or fragment)”, the IC50 in experiment [1] was found to be 25 nM. For LVLAMWKVGFFKRNRPPLEEDDEEGQ [full-length human αIIb cytoplasmic tail peptide], the binding result in experiment [2] was “binds”.

The values are drawn from PMC2063547 (The Journal of Cell Biology, 2006).
